Results: patent US20250346679A1 (INVOX PHARMA, published 2025)
Numbering of substitutions follows the chain as printed.

Assays:
FcgRIIB on CHO cells = molecular target: T1, FcgRIIB on CHO cells (UniProt P31994 43-310); assay: flow cytometry on CHO cells over-expressing FcγRIIB, anti-human IgG AF-488 detection
T1 construct: whole, on cells; also called CHO.FcγRIIB
T1 sequence (looked up): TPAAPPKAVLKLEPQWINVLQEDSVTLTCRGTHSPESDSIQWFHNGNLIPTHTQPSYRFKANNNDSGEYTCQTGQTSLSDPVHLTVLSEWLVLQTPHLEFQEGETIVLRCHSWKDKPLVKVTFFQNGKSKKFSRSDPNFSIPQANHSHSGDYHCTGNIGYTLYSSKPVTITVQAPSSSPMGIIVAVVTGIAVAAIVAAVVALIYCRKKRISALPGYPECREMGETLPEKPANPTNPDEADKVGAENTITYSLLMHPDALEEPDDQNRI
From the text: (§1) However, in order to circumnavigate potential off-target effects such as systemic CD137 activation due to crosslinking by Fcγ receptor binding and to decrease the possibility of inducing ADCC of immune cells, for example T cells, that express both targets, it was decided to decrease the Fcγ receptor binding ability of the anti-human CD137/PD-L1 mAb² by introduction of a LALA mutation in the CH2 domain (see Example 3.2 for details on the LALA format).
(§2) Briefly, CHO.FcγRIIA.131H, […], CHO.FcγRIIIA.158F, CHO.FcγRIIIA.158V, CHO.FcγRIIB, or CHO.WT suspensions were prepared in FACS buffer (DPBS containing (Gibco, 14190-094) containing 0.5% BSA (Sigma, A7906)) and seeded at 1×10⁵ cell/well in 100 μl in round bottomed 96-well plates (VWR, 734-1797). […] The washed cells were resuspended in the diluted antibody mixture, incubated at 4° C. for 30 minutes, and then washed once in FACS buffer. […] The geometric mean fluorescence intensity (GMFI) values were plotted vs the log concentration of antibody and the resulting curves were fitted using the log (agonist) vs response equation in GraphPad Prism.

[1] = molecular target: T2, FcgRIIIA 158F on CHO cells (UniProt P08637 17-254, limits assumed); assay: flow cytometry on CHO cells over-expressing FcγRIIIA 158F, anti-human IgG AF-488 detection
T2 construct: whole, on cells; also called CHO.FcγRIIIA.158F
T2 sequence (P08637 17-254 limits assumed): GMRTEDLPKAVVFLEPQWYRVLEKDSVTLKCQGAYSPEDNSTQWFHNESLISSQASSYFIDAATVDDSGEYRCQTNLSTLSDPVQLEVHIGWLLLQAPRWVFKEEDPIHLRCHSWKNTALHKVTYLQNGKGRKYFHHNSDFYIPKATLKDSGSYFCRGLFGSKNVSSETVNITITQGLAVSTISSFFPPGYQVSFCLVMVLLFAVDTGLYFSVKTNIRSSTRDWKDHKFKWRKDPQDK
From the text: as §1, §2

[2] = molecular target: T3, FcgRIIIA 158V on CHO cells (UniProt P08637 17-254); assay: flow cytometry on CHO cells over-expressing FcγRIIIA 158V, anti-human IgG AF-488 detection
T3 construct: whole, on cells; also called CHO.FcγRIIIA.158V
T3 sequence (P08637 17-254 F176V limits assumed): as the sequence (P08637 17-254 limits assumed) above, with F160V counted along it
From the text: as §1, §2

[3] = molecular target: T4, FcgRIIA 131H on CHO cells (UniProt P12318 34-317, limits assumed); assay: flow cytometry on CHO cells over-expressing FcγRIIA 131H, anti-human IgG AF-488 detection
T4 construct: whole, on cells; also called CHO.FcγRIIA.131H
T4 sequence (looked up): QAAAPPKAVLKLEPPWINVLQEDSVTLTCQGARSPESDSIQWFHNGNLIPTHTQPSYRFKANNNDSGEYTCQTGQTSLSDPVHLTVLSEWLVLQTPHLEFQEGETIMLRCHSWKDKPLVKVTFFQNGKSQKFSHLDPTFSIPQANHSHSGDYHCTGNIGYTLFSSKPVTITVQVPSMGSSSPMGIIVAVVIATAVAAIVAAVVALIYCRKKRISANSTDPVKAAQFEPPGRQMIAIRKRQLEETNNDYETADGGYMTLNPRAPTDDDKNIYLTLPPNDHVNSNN
From the text: as §1, §2

[4] = molecular target: T5, human CD137, cell-surface (human, UniProt Q07011 24-255); assay: cell-based or functional assay
[5] = molecular target: T5, human CD137, cell-surface; assay: cell-based or functional assay; remark: listed apart in the source
[6] = molecular target: T5, human CD137, cell-surface; assay: cell-based or functional assay; remark: listed apart in the source
[7] = molecular target: T5, human CD137, cell-surface; assay: cell-based or functional assay; remark: listed apart in the source
[8] = molecular target: T5, human CD137, cell-surface; assay: cell-based or functional assay; remark: listed apart in the source
[9] = molecular target: human PD-L1, cell-surface (human, UniProt Q9NZQ7 19-290); assay: cell-based or functional assay
Sequence of human PD-L1, cell-surface (Q9NZQ7 19-290): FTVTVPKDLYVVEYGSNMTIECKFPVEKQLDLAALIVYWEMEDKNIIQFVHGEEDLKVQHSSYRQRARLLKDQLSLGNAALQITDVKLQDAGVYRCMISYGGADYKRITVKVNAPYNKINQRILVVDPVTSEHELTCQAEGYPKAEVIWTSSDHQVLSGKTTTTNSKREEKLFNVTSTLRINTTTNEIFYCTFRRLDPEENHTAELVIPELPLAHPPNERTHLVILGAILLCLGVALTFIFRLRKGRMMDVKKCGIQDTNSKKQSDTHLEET

hPD-L1-rCD4-His [10] = molecular target: T6, hPD-L1-rCD4-His (human); assay: SPR, culture supernatants
T6 construct: also called human PD-L1-rCD4-His; hu-PD-L1-rCD4-His
T6 sequence (chain, as listed by the source): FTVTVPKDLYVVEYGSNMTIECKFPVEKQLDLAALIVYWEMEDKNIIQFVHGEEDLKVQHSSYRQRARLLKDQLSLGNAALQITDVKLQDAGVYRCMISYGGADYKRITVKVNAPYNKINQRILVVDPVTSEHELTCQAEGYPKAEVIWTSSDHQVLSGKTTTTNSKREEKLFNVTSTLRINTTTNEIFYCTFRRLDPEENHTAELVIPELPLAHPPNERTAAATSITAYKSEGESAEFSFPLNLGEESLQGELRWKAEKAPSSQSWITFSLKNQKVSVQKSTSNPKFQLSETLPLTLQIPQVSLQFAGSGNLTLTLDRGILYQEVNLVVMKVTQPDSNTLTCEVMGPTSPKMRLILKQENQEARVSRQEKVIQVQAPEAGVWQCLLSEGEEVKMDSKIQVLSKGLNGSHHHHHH

Cyno PD-L1-rCD4-His = molecular target: T7, Cyno PD-L1-rCD4-His (cynomolgus, UniProt Q9NZQ7 19-238 (human entry)); assay: SPR
T7 construct: also called cynomolgus PD-L1-rCD4-His; not shown: rat CD4 domains 3 and 4 and His tag
T7 sequence (Q9NZQ7 other isoform, or with tags, fused parts or gaps): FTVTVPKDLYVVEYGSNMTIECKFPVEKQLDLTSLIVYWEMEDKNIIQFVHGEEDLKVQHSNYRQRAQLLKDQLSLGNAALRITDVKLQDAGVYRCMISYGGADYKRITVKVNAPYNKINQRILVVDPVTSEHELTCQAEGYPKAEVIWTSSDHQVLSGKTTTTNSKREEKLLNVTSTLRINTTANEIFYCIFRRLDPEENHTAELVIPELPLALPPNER

hPD-L1-rCD4-His [11] = molecular target: T6, hPD-L1-rCD4-His; assay: SPR
[12] = molecular target: mouse CD137, cell-surface (mouse, UniProt P20334 24-256); assay: cell-based or functional assay
Sequence of mouse CD137, cell-surface (P20334 24-256): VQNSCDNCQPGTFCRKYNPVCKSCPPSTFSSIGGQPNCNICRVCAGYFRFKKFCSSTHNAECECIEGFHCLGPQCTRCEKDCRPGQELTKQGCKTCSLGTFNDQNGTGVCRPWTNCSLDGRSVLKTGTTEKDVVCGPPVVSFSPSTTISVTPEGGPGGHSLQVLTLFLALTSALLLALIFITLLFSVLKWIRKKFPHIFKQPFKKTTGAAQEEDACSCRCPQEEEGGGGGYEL

B1: G1/4420 (antibody, human IgG1, kappa)
heavy: not shown
light: DVVMTQTPLSLPVSLGDQASISCRSSQSLVHSNGNTYLRWYLQKPGQSPKVLIYKVSNRFSGVPDRFSGSGSGTDFTLKISRVEAEDLGVYFCSQSTHVPWTFGGGTKLEIKRTVAAPSVFIFPPSDEQLKSGTASVVCLLNNFYPREAKVQWKVDNALQSGNSQESVTEQDSKDSTYSLSSTLTLSKADYEKHKVYACEVTHQGLSSPVTKSFNRGEC
binding result (FcgRIIB on CHO cells): binds | binding result [1]: binds | binding result [2]: binds | binding result [3]: binds

B2: G1-AA/20H4.9 (antibody, V domains shown)
VH: QVQLQQWGAGLLKPSETLSLTCAVYGGSFSGYYWSWIRQSPEKGLEWIGEINHGGYVTYNPSLESRVTISVDTSKNQFSLKLSSVTAADTAVYYCARDYGPGNYDWYFDLWGRGTLVTVSS
VL: EIVLTQSPATLSLSPGERATLSCRASQSVSSYLAWYQQKPGQAPRLLIYDASNRATGIPARFSGSGSGTDFTLTISSLEPEDFAVYYCQQRSNWPPALTFGGGTKVEIKR
EC50 (nM), hIL-2 release, CD8+ T cells, donor 171115A, HEK.hPD-L1 assay, crosslinked with anti-hCH2 [4]: 0.21 nM | EC50 (nM), hIL-2 release, CD8+ T cells, donor 171115A, MDA-MB-231 assay, crosslinked with anti-hCH2 [4]: 0.31 nM | EC50 (nM), hIL-2 release, CD8+ T cells, donor 171115B, HEK.hPD-L1 assay, crosslinked with anti-hCH2 [4]: 0.29 nM | EC50 (nM), hIL-2 release, CD8+ T cells, donor 171115B, MDA-MB-231 assay, crosslinked with anti-hCH2 [4]: 0.28 nM | Emax (pg/ml), IFN-γ release, CEFT antigen recall assay, crosslinked with anti-human CH2 (EC50 N/A) [5]: 13000 pg/mL | EC50, hIL-2 release, primary human CD8+ T cells, crosslinked with anti-hCH2 [6]: 0.5 nM | EC50 (nM), IFN-γ release, human MLR, crosslinked with anti-human CH2 [7]: 1.9 nM | EC50 (nM), IFN-γ release, CEF antigen recall assay, crosslinked with anti-human CH2 [8]: 0.33 nM

B3: G1/280_02_G02 (antibody, human IgG1, V domains shown)
VH: EVQLVQSGAEVKRPGASVKVSCKASGYTFTSYGISWVRQAPGQGLEWMGWISAYNGNTNYAQKLQGRVTMTTDTSTSTAYMELRSLRSDDTAVYYCARDLFPTIFGVSYYYYWGQGTLVTVSS
VL: QSALTQPASVSGSPGQSITISCTGTSSDVGGYNSVSWYQQFPGKAPKLMIFEVTNRPSGVSDRFSGSKSDNTASLTISGLQAEDEAEYYCSSFKRGSTLVVFG
EC50, luciferase, Jurkat-NFAT PD-1 / PD-L1 cell co-culture assay [9]: 4.2 nM

B4: G1/929_01_A11 (antibody, IgG1, V domains shown)
VH: B3 VH with N55S, N57G
VL: DIQMTQSPSTLSASVGDRVTITCRASQSISGRLAWYQQKPGKAPNLLIYEASNLESGVPSRFSGSGSGTEFTLTISSLQPEDFATYYCQQSYSWPRTFGQGTKVEIK
notes: IgG1 without LALA
binding result (hPD-L1-rCD4-His [10]): binds

B5: G1/929_01_A02 (antibody, IgG1, V domains shown)
VH: B3 VH with N55S, N57G
VL: DIQMTQSPSTLSASVRDRVIITCRASQSIGNRLAWYQHKPGKAPKLLIYEASTSETGVPSRFSGSGSGTDFTLTISSLQPEDFATYYCQQSYSTPYTFGQGTKLEIK
notes: IgG1 without LALA
fold lower affinity than G1-AA/E12v2 (Cyno PD-L1-rCD4-His): > 10 fold | fold lower affinity than G1-AA/E12v2 (hPD-L1-rCD4-His [11]): > 10 fold

B6: G1/929_01_A08 (antibody, IgG1, V domains shown)
VH: B3 VH with N55S, N57G
VL: DIQMTQSPSTLSASVGDRVTITCRASQSISGRLAWYQQKPGKAPNLLIYEASNLESGVPSRFSGSGSGTEFTLTISSLQPEDFATYYCQQSYSTPRVTFGQGTKVEIK
notes: IgG1 without LALA; SGGT variant of G1/894_08_E05, became G1-AA/E05v2 with LALA
binding result (hPD-L1-rCD4-His [10]): binds

B7: FS22m-063-AA/HeID1.3 (bispecific antibody, human IgG1, kappa, L234A L235A)
heavy: QVQLQESGPGLVRPSQTLSLTCTVSGSTFSGYGVNWVRQPPGRGLEWIGMIWGDGNTDYNSALKSRVTMLVDTSKNQFSLRLSSVTAADTAVYYCARERDYRLDYWGQGSLVTVSSASTKGPSVFPLAPSSKSTSGGTAALGCLVKDYFPEPVTVSWNSGALTSGVHTFPAVLQSSGLYSLSSVVTVPSSSLGTQTYICNVNHKPSNTKVDKKVEPKSCDKTHTCPPCPAPEAAGGPSVFLFPPKPKDTLMISRTPEVTCVVVDVSHEDPEVKFNWYVDGVEVHNAKTKPREEQYNSTYRVVSVLTVLHQDWLNGKEYKCKVSNKALPAPIEKTISKAKGQPREPQVYTLPPSRDEPYWSYVSLTCLVKGFYPSDIAVEWESNGQPENNYKTTPPVLDSDGSFFLYSKLTVMNYRWELGNVFSCSVMHEALHNHYTQKSLSLSPG
light: DIQMTQSPASLSASVGETVTITCRASGNIHNYLAWYQQKQGKSPQLLVYNAKTLADGVPSRFSGSGSGTQYSLKINSLQPEDFGSYYCQHFWSTPRTFGGGTKLEIKRTVAAPSVFIFPPSDEQLKSGTASVVCLLNNFYPREAKVQWKVDNALQSGNSQESVTEQDSKDSTYSLSSTLTLSKADYEKHKVYACEVTHQGLSSPVTKSFNRGEC
Emax (pg/ml), mIFN-γ release, OT-1 CD8+ T cell activation assay (EC50 n/a) [12]: 3850 pg/mL
